Measured values reported in paper PMC9503459, “Antifungal Activity, Structural Stability, and Immunomodulatory Effects on Human Immune Cells of Defensin from the Lentil Lens culinaris” (Membranes, 2022).
No end group written: not given here.

Assay: CD spectroscopy, secondary structure at different pH and temperature
Assay type: physicochemical
Method: Circular dichroism spectra were recorded at different temperatures using a J-810 spectropolarimeter (Jasco, Hachioji, Tokyo, Japan) in a 0.1 cm path length quartz cell (Hellma GmbH and Co. KG, Mullheim, Germany) in the 190–250 nm range 0.2 using solutions of Lc-def in 10 mM phosphate buffer, pH 7.4, or 150 mM sodium chloride, pH 2.5, simulated gastric fluid, at a concentration of 30 µM. Lysolipids were added at final concentration of 1 mM.

[1] = far-UV CD, 30 µM, 10 mM phosphate buffer pH 7.4
[2] = far-UV CD, 30 µM, 150 mM sodium chloride pH 2.5, simulated gastric fluid
[3] = pH 7.4, 20 °C end (after heating and cooling)

**Q.** For “Lc-def: defensin from lentil Lens culinaris seeds (UniProt:B3F051), recombinant, overexpressed in Escherichia coli (KTCENLSDSFKGPCIPDGNCNKHCKEKEHLLSGRCRDDFRCWCTRNC; disulfide (positions not given here); ends not checked; also: disulfide bonds present, pairing not given here; UniProt B3F051 28-74, looked up)”, which “Random, %” value (+LPPC 1 mM, pH 7.4, 20 °C) is on record?
**A.** 31%

**Q.** What about the “α-Helix, %” value (+LPPC 1 mM, pH 7.4, 20 °C) of the same substance?
**A.** 16.4%

**Q.** And the “β-Sheet, %” value (+LPPC 1 mM, pH 7.4, 20 °C)?
**A.** 30.3%

**Q.** What about the “β-Turn, %” value (+LPPC 1 mM, pH 7.4, 20 °C) of the same substance?
**A.** 22.3%

**Q.** What about the “Random, %” value (+LPPC 1 mM, pH 7.4, 20 °C end) of the same substance?
**A.** 32.8%

**Q.** What about the “α-Helix, %” value (+LPPC 1 mM, pH 7.4, 20 °C end) of the same substance?
**A.** 5.8%

**Q.** What about the “β-Sheet, %” value (+LPPC 1 mM, pH 7.4, 20 °C end) of the same substance?
**A.** 39.9%

**Q.** And the “β-Turn, %” value (+LPPC 1 mM, pH 7.4, 20 °C end)?
**A.** 21.5%

**Q.** And the “Random, %” value (+LPPC 1 mM, pH 7.4, 98 °C)?
**A.** 33.7%

**Q.** And the “α-Helix, %” value (+LPPC 1 mM, pH 7.4, 98 °C)?
**A.** 8.1%

**Q.** And the “β-Sheet, %” value (+LPPC 1 mM, pH 7.4, 98 °C)?
**A.** 35.7%

**Q.** What about the “β-Turn, %” value (+LPPC 1 mM, pH 7.4, 98 °C) of the same substance?
**A.** 22.5%

**Q.** And the “Random, %” value (+LPPG 1 mM, pH 7.4, 20 °C)?
**A.** 33%

**Q.** What about the “α-Helix, %” value (+LPPG 1 mM, pH 7.4, 20 °C) of the same substance?
**A.** 23.6%

**Q.** And the “β-Sheet, %” value (+LPPG 1 mM, pH 7.4, 20 °C)?
**A.** 21%

**Q.** What about the “β-Turn, %” value (+LPPG 1 mM, pH 7.4, 20 °C) of the same substance?
**A.** 22.4%

**Q.** And the “Random, %” value (+LPPG 1 mM, pH 7.4, 20 °C end)?
**A.** 32.9%

**Q.** What about the “α-Helix, %” value (+LPPG 1 mM, pH 7.4, 20 °C end) of the same substance?
**A.** 21.7%

**Q.** And the “β-Sheet, %” value (+LPPG 1 mM, pH 7.4, 20 °C end)?
**A.** 23.1%

**Q.** What about the “β-Turn, %” value (+LPPG 1 mM, pH 7.4, 20 °C end) of the same substance?
**A.** 22.2%

**Q.** And the “Random, %” value (+LPPG 1 mM, pH 7.4, 98 °C)?
**A.** 35%

**Q.** What about the “α-Helix, %” value (+LPPG 1 mM, pH 7.4, 98 °C) of the same substance?
**A.** 18.5%

**Q.** What about the “β-Sheet, %” value (+LPPG 1 mM, pH 7.4, 98 °C) of the same substance?
**A.** 24.1%

**Q.** What about the “β-Turn, %” value (+LPPG 1 mM, pH 7.4, 98 °C) of the same substance?
**A.** 22.4%

**Q.** What about the “Random, %” value [1] of the same substance?
**A.** 33.9%

**Q.** And the “α-Helix, %” value [1]?
**A.** 15.5%

**Q.** And the “β-Sheet, %” value [1]?
**A.** 28.5%

**Q.** What about the “β-Turn, %” value [1] of the same substance?
**A.** 22.2%

**Q.** What about the “Random, %” value [2] of the same substance?
**A.** 35.8%

**Q.** What about the “α-Helix, %” value [2] of the same substance?
**A.** 13.9%

**Q.** What about the “β-Sheet, %” value [2] of the same substance?
**A.** 25.4%

**Q.** What about the “β-Turn, %” value [2] of the same substance?
**A.** 24.8%

**Q.** And the “Random, %” value (pH 7.4, 20 °C (before heating))?
**A.** 34%

**Q.** What about the “α-Helix, %” value (pH 7.4, 20 °C (before heating)) of the same substance?
**A.** 15.9%

**Q.** And the “β-Sheet, %” value (pH 7.4, 20 °C (before heating))?
**A.** 27.7%

**Q.** And the “β-Turn, %” value (pH 7.4, 20 °C (before heating))?
**A.** 22.3%

**Q.** And the “Random, %” value [3]?
**A.** 35.9%

**Q.** And the “α-Helix, %” value [3]?
**A.** 9%

**Q.** And the “β-Sheet, %” value [3]?
**A.** 32.1%

**Q.** And the “β-Turn, %” value [3]?
**A.** 22.9%

**Q.** And the “Random, %” value (pH 7.4, 98 °C)?
**A.** 35.3%

**Q.** What about the “α-Helix, %” value (pH 7.4, 98 °C) of the same substance?
**A.** 13.3%

**Q.** What about the “β-Sheet, %” value (pH 7.4, 98 °C) of the same substance?
**A.** 29.6%

**Q.** What about the “β-Turn, %” value (pH 7.4, 98 °C) of the same substance?
**A.** 21.8%
